In article PMC9560800:
Values joined by “and” are separate entries in the source; they are usually repeats but may differ in a detail not shown here. Equal entries are not always repeated.

Legend:
[1] = target: tag-less B.1.351 trimeric spike protein (SARS-CoV-2 | T4 phage); experiment: SEC-MALS
[2] = target: tag-less B.1.617.2 trimeric spike protein (SARS-CoV-2 | T4 phage); experiment: SEC-MALS

| Substance | stoichiometry N [1] | stoichiometry N [2] |
| --- | --- | --- |
| tag-less B.1.351 trimeric spike protein | 3 and 6 | – |
| tag-less B.1.617.2 trimeric spike protein | – | 3 and 6 |
